Data from patent US10106589B2, “Compositions and methods for immunomodulation” (FUNDACIO INSTITUT D'INVESTIGACIO BIOMEDICA DE BELLVITGE …, priority 2011, dated 2018).
Entries after “also recorded” stand apart in the source; their conditions may differ.

B1: C4BP α7β0: C4BP isoform exclusively composed of 7 α-chains, purified from pooled human plasma (protein, UniProt P04003 49-597, looked up)
C4b-binding protein alpha …: NCGPPPTLSFAAPMDITLTETRFKTGTTLKYTCLPGYVRSHSTQTLTCNSDGEWVYNTFCIYKRCRHPGELRNGQVEIKTDLSFGSQIEFSCSEGFFLIGSTTSRCEVQDRGVGWSHPLPQCEIVKCKPPPDIRNGRHSGEENFYAYGFSVTYSCDPRFSLLGHASISCTVENETIGVWRPSPPTCEKITCRKPDVSHGEMVSGFGPIYNYKDTIVFKCQKGFVLRGSSVIHCDADSKWNPSPPACEPNSCINLPDIPHASWETYPRPTKEDVYVVGTVLRYRCHPGYKPTTDEPTTVICQKNLRWTPYQGCEALCCPEPKLNNGEITQHRKSRPANHCVYFYGDEISFSCHETSRFSAICQGDGTWSPRTPSCGDICNFPPKIAHGHYKQSSSYSFFKEEIIYECDKGYILVGQAKLSCSYSHWSAPAPQCKALCRKPELVNGRLSVDKDQYVEPENVTIQCDSGYGVVGPQSITCSGNRTWYPEVPKCEWETPEGCEQVLTGKRLMQCLPNPEDVKMALEVYKLSLEIEQLELQRDSARQSTLDKEL
B2: C4BP α6β0: polymeric recombinant full-length C4BP of 6 α-chains, expressed in eukaryotic cells (protein, UniProt P04003 49-597, looked up)
C4b-binding protein alpha …: NCGPPPTLSFAAPMDITLTETRFKTGTTLKYTCLPGYVRSHSTQTLTCNSDGEWVYNTFCIYKRCRHPGELRNGQVEIKTDLSFGSQIEFSCSEGFFLIGSTTSRCEVQDRGVGWSHPLPQCEIVKCKPPPDIRNGRHSGEENFYAYGFSVTYSCDPRFSLLGHASISCTVENETIGVWRPSPPTCEKITCRKPDVSHGEMVSGFGPIYNYKDTIVFKCQKGFVLRGSSVIHCDADSKWNPSPPACEPNSCINLPDIPHASWETYPRPTKEDVYVVGTVLRYRCHPGYKPTTDEPTTVICQKNLRWTPYQGCEALCCPEPKLNNGEITQHRKSRPANHCVYFYGDEISFSCHETSRFSAICQGDGTWSPRTPSCGDICNFPPKIAHGHYKQSSSYSFFKEEIIYECDKGYILVGQAKLSCSYSHWSAPAPQCKALCRKPELVNGRLSVDKDQYVEPENVTIQCDSGYGVVGPQSITCSGNRTWYPEVPKCEWETPEGCEQVLTGKRLMQCLPNPEDVKMALEVYKLSLEIEQLELQRDSARQSTLDKEL

How the values were obtained:
human Mo-DCs [1] = assay: Flow cytometry of cell surface markers on treated, LPS-matured Mo-DCs; details: CCP6-based peptides at 100 μM
human Mo-DCs [2] = assay: as above; format: cell-based; details: treated throughout differentiation and maturation, LPS-matured; for CD1a expression / CD80 expression / CD83 expression / CD86 expression: dose-dependent; for expression of surface markers (CD14, HLA-DR, CD40, CD80, CD83, CD86, CD1a): vs untreated mDC
Experimental: Peripheral blood mononuclear cells (PBMCs) were obtained from buffy coat preparations belonging to healthy donors from the Blood and Tissue Bank (Barcelona, Spain) after Ficoll-Paque™ density centrifugation (GE Healthcare Bio-Sciences AB; Uppsala, Sweden). Monocytes were purified by two different methods: 1) Cells were plated at 1×10^6 cells/ml in 60 mm culture plates (Corning, Spain) in RPMI without serum and allowed to adhere for 2 h at 37° C. in 5% CO2. The non-adherent cells were removed by washing in PBS. […] 2) Cells were purified using colloidal super-paramagnetic microbeads conjugated with monoclonal mouse anti-human CD14 antibodies (MACS, Miltenyi Biotec, Auburn, Calif., or EasySep® Positive Selection Cocktail, StemCell Technologies, Grenoble, France). The purity of CD14^+ cells was tested by CD14 staining and flow cytometry analysis (>90% CD14^+ cells). Monocyte-derived DCs (Mo-DCs) were generated supplementing the monocyte cultures with complete RPMI 1640 medium plus GM-CSF (800 UI/ml) and IL-4 (500 UI/ml) (both from Gentaur, Kampenhout, Belgium) at day 0 and day 3 of culture. For DC maturation, at day 5 iDCs were further stimulated for 48 h with 5 μg/ml LPS (Escherichia coli 055.B5, Sigma L2880, Copenhagen, Denmark).
Cell surface phenotypes were analyzed using the following monoclonal antibodies: FITC-conjugated anti-HLA-DR (Immu-357), FITC-conjugated anti-CD83 (HB15a), FITC-conjugated anti-CD14 (RMO52), PE-conjugated anti-CD40 (MAB89), PE-conjugated anti-CD1a (BL6), PE-conjugated anti-CD80 (MAB104), PE-conjugated anti-CD86 (HA5.2B7) (all from Beckman-Coulter), Alexa Fluor 488-conjugated anti-CCR7 (TG8/CCR7, Biolegend, San Diego, Calif.), and the respective isotype controls from the same commercial sources. After washing with PBS, cells were subsequently stained with 3 μl MoAb/10^5 cells in 100 μl of FACS buffer (PBS containing 1% BSA and 0.1% sodium azide) for 20 min at room temp. Stained cells were analysed using a FACScalibur (Becton Dickinson). Mo-DCs were gated according to forward scatter (FSC) and side scatter (SSC) parameters. The results were analysed using CellQuestPro software (Becton Dickinson).
Both the different C4BP isoforms (α7β1, α7β0 and α6β0), and Factor H were added at 2, 5 and 10 μg/ml throughout Mo-DC differentiation, maturation, or both. Namely, for the differentiation assays the proteins were added at day 0 and replenished at day 3. For the maturation assays the proteins were added at day 5, either alone or combined with LPS. Finally, for the differentiation plus maturation assays the proteins were added at days 0, 3 and 5 (at the last time point, combined with LPS).

human Mo-DCs [3] = assay: Quantitative RT-PCR of CCR7, IDO, BIC-1, SOD2 in Mo-DCs; format: cell-based; details: RT-qPCR; pretreated, LPS-matured Mo-DCs
Experimental: Mo-DCs (10^6/condition) were harvested at day 7 and the mRNA was extracted using the RNeasy RNA Isolation kit (Qiagen) and incubated with RNase-free DNase I (Ambion, Austin, Tex.) according to the manufacturer's protocol. A two-step real-time RT-PCR technique was used to determine the relative mRNA levels of human CCR7, BIC-1, IDO and SOD2. Reverse transcription reactions were performed with 500 ng of total RNA using the Omniscript RT kit (Qiagen). Quantification of mRNA levels was performed by real-time polymerase chain reaction (PCR) with the use of the LightCycler technology (Roche Molecular Biochemicals, Indianapolis, Ind.). The following primers were used: CCR7-f (5′-TGGGCATCTGGATACTAGC-3′) (SEQ ID NO:6), CCR7-r (5′-AAGAAAGGGTTGACGCAGC-3′) (SEQ ID NO:7); IDO-f (5′-[…]-3′) (SEQ ID NO:8); IDO-r (5′-[…]-3′) (SEQ ID NO:9); BIC-1-f (5′-[…]-3′) (SEQ ID NO:10), BIC-1-r (5′-[…]-3′) (SEQ ID NO:11); SOD2-f (5′-GACAAACCTCAGCCCTAAC-3′) (SEQ ID NO:12), SOD2-r (5′-[…]-3′) (SEQ ID NO:13), yielding products of 435, 227, 296 bp, and 248 bp, respectively. These gene-specific primer pairs were designed using Oligo 4.0 and Primer 3 software packages (MBI, Cascade, Colo.) and selected to prevent primer-dimer formation.
All samples were normalized with the use of the following primer set for the constitutively expressed human cyclophilin gene: CypA-f (5′-[…]-3′) (SEQ ID NO:14) and CypA-r (5′-CACCACATGCTTGCCATCC-3′) (SEQ ID NO:15) (Pluvinet R. et al., 2004, Blood. 104: 3642-3646). All primers were purchased from Bonsai Technologies (Copenhagen, Denmark).
PCR amplifications were performed in a 20 μl volume containing 2 μl ready-to-use reaction mix, 10×DNA Master SYBR Green I (Roche Molecular Biochemicals); MgCl2 (3 mM for CCR7; 4 mM for BIC-1 and SOD2, and 5 mM for IDO); 0.15 μM of each primer; 5% dimethyl sulfoxide (DMSO); and 75 ng cDNA as template. The amplification program used an initial denaturation at 95° C. for 10 min, followed by 45 cycles: 95° C. for 1 sec; 58° C. (CCR7 and SOD2)/60° C. (BIC-1 and IDO) for 5 sec; 72° C. for 10 sec.

human Mo-DCs [4] = assay: Scanning electron microscopy of Mo-DC surface morphology; format: cell-based; details: SEM after 48 h LPS maturation
Experimental: Monocytes were seeded on glass slides covered with either poly-L-lysine (25 μg/ml) or fibronectin (42 μg/ml), cultured for 5 days in complete RPMI medium supplemented with 800 U/ml GM-CSF, 500 U/ml IL-4, and the C4BP isoforms α7β1, α7β0, or Factor H (10 μg/ml), and further stimulated with LPS for 48 hours in the same medium. The resulting DCs were fixed in 1% paraformaldehyde and 1.25% glutaraldehyde in cacodylate buffer for 2 h. Finally, the cells were post-fixed in 1% OsO4, and dehydrated with graded series of ethanol followed by acetone. After dehydration the cells were dried in a critical-point dryer and coated with gold before observation by scanning electron microscopy (Zeiss DSM940A).

allogeneic CD3+ T cells = assay: Mixed leukocyte reaction ([3H]-thymidine incorporation); format: cell-based, human; details: Mo-DCs pre-incubated and matured with LPS; DC:T 1:40, 1:80, 1:160; 5 days
Experimental: CD3^+ T cells (10^5/well) and C4BP-treated (α7β1 and α7β0), or Factor H-treated, and LPS-activated Mo-DCs were seeded in a 96-well round-bottom plate at various DC:T cell ratios (1:40, 1:80 and 1:160) and cultured in X-VIVO 15 medium (Biowittaker, Walkersville, Md.) supplemented with 100 μg/ml of streptomycin, 100 IU/ml of penicillin and 2 mM L-glutamine (all from Invitrogen) plus 2% Human AB Serum. Allospecific proliferation was measured after 5 days of incubation. At day 4, the […] [^3H]-thymidine (1 μCi/well, Perkin Elmer, Boston, Mass.) was added, followed by incubation for another 16 h. Labeled cells were then harvested onto glass-fiber filters with a Filtermate Harvester (Packard, Meriden, Conn.), and the T cell proliferation rate was determined by the amount of [^3H]-thymidine incorporation, which was measured in a TopCount NXT counter (Packard). Results are reported as the mean cpm±SD of thymidine incorporation in quadruplicate culture wells.

| Molecule | CD83 upregulation on LPS-matured Mo-DCs (human Mo-DCs [1]) | toxicity to the DCs (human Mo-DCs [1]) | CD1a expression (human Mo-DCs [2]) | CD80 expression (human Mo-DCs [2]) | CD83 expression (human Mo-DCs [2]) | CD86 expression (human Mo-DCs [2]) | expression of surface markers (CD14, HLA-DR, CD40, CD80, CD83, CD86, CD1a) (human Mo-DCs [2]) | BIC-1 transcript level (human Mo-DCs [3]) | CCR7 transcript level (human Mo-DCs [3]) | IDO transcript level (human Mo-DCs [3]) | surface morphology of Mo-DCs (human Mo-DCs [4]) | allogeneic T cell proliferation (allogeneic CD3+ T cells) |
| --- | --- | --- | --- | --- | --- | --- | --- | --- | --- | --- | --- | --- |
| Ac-HRKSRPANHSVYFYGDEISFSSHETSRFSA-NH2 [PS6-02] | seemed to prevent CD83 upregulation | toxic |  |  |  |  |  |  |  |  |  |  |
| PS6-03: SEQ ID NO:4 EISFSSH ETSRFSAISQ GDGTWSPRTP SSG, CCP6-derived peptide (EISFSSHETSRFSAISQGDGTWSPRTPSSG; PS6-03) | seemed to prevent CD83 upregulation |  |  |  |  |  |  |  |  |  |  |  |
| PS6-04: SEQ ID NO:5 ITQHRK SRPANHSV, 14-mer CCP6-derived peptide (ITQHRKSRPANHSV; PS6-04) | comparable effect than its C4BP α6β0 counterpart |  |  |  |  |  |  |  |  |  |  |  |
| B1 |  |  | significantly down-regulated | significantly down-regulated | significantly down-regulated | significantly down-regulated | inhibit up-regulation | significantly down-regulated | significantly down-regulated | significantly down-regulated | absence of long dendritic projections; also recorded: reversed the “porcupine like” DC morphology | significantly less T cell proliferation |
| B2 |  |  | significantly down-regulated | significantly down-regulated | significantly down-regulated | significantly down-regulated | inhibit up-regulation | significantly down-regulated | significantly down-regulated | significantly down-regulated | reversed the “porcupine like” DC morphology |  |
